The values that follow come from patent US20230279137A1 (EVOTEC INTERNATIONAL, published 2023).

What all share (experiment): cell-based or functional assay
The target in experiment [1] is T1, human IFNγ receptor on HEK-Blue IFN-γ cells (human, UniProt P15260 18-489; P38484 22-337).
T1 sequence (looked up) 1: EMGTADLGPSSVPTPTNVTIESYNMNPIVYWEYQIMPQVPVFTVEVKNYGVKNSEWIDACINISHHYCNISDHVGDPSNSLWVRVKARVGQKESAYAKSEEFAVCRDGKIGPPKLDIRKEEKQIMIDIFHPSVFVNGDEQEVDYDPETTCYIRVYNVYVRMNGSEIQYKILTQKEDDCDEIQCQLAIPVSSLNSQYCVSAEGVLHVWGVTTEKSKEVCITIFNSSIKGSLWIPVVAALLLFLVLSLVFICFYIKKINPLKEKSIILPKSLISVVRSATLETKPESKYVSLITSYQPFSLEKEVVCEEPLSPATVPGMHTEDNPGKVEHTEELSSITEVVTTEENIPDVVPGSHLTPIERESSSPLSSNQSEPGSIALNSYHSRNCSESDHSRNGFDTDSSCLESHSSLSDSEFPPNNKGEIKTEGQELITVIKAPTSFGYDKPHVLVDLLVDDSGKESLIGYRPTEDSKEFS
T1 sequence (looked up) 2: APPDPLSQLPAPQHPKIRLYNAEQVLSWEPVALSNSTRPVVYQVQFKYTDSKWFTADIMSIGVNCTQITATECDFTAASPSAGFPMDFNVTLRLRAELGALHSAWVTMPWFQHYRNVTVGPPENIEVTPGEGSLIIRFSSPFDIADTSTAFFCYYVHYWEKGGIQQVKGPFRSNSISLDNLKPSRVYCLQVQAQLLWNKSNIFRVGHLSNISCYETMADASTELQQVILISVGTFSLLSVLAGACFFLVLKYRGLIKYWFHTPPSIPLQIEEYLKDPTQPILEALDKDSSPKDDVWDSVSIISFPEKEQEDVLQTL

Experiment [2] addresses T2, human CD40 (human, UniProt P25942 21-277).
For experiment [3], the target named is T1, human IFNγ receptor on HEK-Blue IFN-γ …. This is another data set of the same source.
The target of experiment [4] is T3, human type I IFN receptor on HEK-Blue IFN-α/β cells (human, UniProt P17181 28-557; P48551 27-515).
T3 sequence (looked up) 1: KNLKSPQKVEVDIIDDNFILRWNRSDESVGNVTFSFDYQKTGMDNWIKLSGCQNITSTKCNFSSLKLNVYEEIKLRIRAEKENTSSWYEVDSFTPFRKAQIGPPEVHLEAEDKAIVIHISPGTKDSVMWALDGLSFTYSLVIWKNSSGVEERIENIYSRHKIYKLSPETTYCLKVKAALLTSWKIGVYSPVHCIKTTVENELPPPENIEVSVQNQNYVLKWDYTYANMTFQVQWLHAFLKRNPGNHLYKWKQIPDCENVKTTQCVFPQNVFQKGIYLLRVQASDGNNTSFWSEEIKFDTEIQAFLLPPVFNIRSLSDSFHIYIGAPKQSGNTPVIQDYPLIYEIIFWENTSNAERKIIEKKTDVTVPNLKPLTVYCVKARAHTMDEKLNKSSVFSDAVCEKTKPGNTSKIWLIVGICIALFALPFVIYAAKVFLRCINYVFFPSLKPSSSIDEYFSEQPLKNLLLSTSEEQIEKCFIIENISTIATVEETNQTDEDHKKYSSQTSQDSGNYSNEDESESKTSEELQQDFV
T3 sequence (looked up) 2: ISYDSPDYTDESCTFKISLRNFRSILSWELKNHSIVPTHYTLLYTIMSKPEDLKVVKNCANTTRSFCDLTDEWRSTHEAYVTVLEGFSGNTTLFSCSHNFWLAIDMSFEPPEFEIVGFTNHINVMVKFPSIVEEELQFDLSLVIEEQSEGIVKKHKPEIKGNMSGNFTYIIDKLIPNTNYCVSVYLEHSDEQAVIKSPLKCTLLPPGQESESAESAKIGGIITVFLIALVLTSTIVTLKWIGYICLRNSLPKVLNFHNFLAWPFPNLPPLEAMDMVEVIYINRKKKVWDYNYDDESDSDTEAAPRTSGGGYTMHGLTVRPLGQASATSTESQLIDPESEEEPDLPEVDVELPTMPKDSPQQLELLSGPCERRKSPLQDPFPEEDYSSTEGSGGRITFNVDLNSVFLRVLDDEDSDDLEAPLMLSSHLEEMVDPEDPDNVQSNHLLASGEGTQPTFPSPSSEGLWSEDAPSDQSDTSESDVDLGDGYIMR

Experiment [5] addresses T2, human CD40. This is another data set of the same source.
Experiment [6] addresses T4, human IFNλ receptor on HEK-Blue IFN-λ cells (human, UniProt Q8IU57 21-520; Q08334 20-325).
T4 sequence (looked up) 1: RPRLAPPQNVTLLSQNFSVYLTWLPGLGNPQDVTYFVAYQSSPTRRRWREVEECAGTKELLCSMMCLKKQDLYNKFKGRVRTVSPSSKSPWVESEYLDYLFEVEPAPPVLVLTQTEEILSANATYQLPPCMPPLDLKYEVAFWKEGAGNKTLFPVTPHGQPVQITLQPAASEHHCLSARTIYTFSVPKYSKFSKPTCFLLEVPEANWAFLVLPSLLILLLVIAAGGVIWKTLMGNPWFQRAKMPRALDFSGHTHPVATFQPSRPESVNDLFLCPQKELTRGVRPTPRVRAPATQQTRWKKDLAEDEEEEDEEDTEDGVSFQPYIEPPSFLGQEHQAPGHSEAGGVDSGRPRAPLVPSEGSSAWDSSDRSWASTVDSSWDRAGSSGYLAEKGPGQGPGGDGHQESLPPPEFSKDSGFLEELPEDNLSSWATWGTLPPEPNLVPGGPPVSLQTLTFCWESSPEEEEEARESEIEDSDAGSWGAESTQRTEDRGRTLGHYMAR
T4 sequence (looked up) 2: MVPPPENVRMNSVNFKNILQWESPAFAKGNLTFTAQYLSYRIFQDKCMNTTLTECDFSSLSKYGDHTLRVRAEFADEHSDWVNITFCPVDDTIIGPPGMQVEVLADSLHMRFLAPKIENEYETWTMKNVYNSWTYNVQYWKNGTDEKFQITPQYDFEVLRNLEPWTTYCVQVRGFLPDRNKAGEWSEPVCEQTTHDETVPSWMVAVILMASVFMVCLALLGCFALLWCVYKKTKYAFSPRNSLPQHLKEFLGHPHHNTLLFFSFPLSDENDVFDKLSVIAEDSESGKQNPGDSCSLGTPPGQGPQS

T2 sequence (P25942 21-277): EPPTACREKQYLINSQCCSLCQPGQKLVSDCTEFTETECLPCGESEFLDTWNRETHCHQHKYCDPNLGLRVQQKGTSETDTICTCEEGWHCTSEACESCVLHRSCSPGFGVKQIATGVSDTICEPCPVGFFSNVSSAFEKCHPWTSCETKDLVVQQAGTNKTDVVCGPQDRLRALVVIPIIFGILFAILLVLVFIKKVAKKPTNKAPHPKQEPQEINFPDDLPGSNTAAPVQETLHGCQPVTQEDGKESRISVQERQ

B1: IFA43 (antibody, human IgG2, kappa)
heavy: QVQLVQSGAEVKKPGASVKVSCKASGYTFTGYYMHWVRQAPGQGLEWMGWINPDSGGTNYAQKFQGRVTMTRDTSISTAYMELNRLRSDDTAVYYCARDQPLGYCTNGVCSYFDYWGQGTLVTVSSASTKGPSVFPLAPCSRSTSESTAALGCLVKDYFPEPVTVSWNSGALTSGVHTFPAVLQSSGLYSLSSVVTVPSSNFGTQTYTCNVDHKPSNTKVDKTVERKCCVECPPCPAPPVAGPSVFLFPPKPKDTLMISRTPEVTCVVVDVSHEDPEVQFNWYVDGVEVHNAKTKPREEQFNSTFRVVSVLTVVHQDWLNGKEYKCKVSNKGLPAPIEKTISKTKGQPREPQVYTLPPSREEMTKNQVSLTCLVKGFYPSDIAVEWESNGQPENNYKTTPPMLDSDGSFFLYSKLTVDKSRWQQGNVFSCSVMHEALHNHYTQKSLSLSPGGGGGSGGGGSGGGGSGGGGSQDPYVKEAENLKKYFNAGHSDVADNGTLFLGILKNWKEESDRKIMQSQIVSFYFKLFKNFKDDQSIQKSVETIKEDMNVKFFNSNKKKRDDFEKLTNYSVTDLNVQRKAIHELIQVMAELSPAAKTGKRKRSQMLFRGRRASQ
light: DIQMTQSPSSVSASVGDRVTITCRASQGIYSWLAWYQQKPGKAPNLLIYTASTLQSGVPSRFSGSGSGTDFTLTISSLQPEDFATYYCQQANIFPLTFGGGTKVEIKRTVAAPSVFIFPPSDEQLKSGTASVVCLLNNFYPREAKVQWKVDNALQSGNSQESVTEQDSKDSTYSLSSTLTLSKADYEKHKVYACEVTHQGLSSPVTKSFNRGEC
B1: the “IFNγ EC50 (ng/mL), reporter in HEK-Blue IFNγ cells” value in experiment [1] is less than 0.001 ng/mL. Further, the “CD40 EC50 (ng/mL), NFκB-SEAP reporter in HEK-Blue CD40L cells” value (shortened to “CD40 EC50 (ng/mL), NFκB-SEAP reporter”) in the experiment with human CD40 [2] was found to be 50.8 ng/mL. For the same molecule, the “IFNγ activity EC50, reporter in HEK-Blue IFNγ cells” value in experiment [3] is less than 0.01 ng/mL.

B2: IFA49 (antibody, human IgG2, kappa)
heavy: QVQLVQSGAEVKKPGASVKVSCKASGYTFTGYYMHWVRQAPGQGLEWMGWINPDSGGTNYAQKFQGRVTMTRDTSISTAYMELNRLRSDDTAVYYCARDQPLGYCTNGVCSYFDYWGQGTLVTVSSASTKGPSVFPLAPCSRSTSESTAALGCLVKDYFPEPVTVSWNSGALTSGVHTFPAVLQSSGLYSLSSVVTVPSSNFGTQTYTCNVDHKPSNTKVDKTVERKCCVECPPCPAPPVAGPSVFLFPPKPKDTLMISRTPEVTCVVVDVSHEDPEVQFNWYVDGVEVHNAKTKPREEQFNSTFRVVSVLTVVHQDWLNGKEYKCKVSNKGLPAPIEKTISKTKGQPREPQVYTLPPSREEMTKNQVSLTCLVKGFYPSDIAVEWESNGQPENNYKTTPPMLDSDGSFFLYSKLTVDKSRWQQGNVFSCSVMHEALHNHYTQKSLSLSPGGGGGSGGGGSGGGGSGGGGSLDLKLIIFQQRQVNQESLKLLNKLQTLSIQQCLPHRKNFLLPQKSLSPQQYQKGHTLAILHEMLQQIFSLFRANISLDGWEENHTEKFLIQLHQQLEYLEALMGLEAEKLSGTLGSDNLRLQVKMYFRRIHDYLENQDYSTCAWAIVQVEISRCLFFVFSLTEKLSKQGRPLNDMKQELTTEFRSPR
light: DIQMTQSPSSVSASVGDRVTITCRASQGIYSWLAWYQQKPGKAPNLLIYTASTLQSGVPSRFSGSGSGTDFTLTISSLQPEDFATYYCQQANIFPLTFGGGTKVEIKRTVAAPSVFIFPPSDEQLKSGTASVVCLLNNFYPREAKVQWKVDNALQSGNSQESVTEQDSKDSTYSLSSTLTLSKADYEKHKVYACEVTHQGLSSPVTKSFNRGEC
Consider B2, for which, in the experiment with human CD40 [2], the “CD40 EC50 (ng/mL), NFκB-SEAP reporter” value worked out at 65.8 ng/mL. Moreover, the “IFNε EC50 (ng/mL), SEAP reporter in HEK-Blue hIFN-α/β cells” value in experiment [4] came to 78.2 ng/mL.

B3: agonistic anti-CD40 antibody CP870,893 (antibody, human IgG2, kappa)
heavy: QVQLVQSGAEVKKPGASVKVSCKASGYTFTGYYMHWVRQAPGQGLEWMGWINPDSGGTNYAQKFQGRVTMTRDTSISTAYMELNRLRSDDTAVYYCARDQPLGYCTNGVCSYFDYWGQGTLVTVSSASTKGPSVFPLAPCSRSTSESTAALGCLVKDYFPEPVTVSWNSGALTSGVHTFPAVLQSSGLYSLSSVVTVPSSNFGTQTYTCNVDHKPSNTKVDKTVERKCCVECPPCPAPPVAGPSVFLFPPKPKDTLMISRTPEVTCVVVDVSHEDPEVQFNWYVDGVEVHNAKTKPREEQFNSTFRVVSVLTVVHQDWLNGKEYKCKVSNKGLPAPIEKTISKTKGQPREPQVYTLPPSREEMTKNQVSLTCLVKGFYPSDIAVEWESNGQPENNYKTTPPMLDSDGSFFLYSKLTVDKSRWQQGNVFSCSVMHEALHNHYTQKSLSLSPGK
light: DIQMTQSPSSVSASVGDRVTITCRASQGIYSWLAWYQQKPGKAPNLLIYTASTLQSGVPSRFSGSGSGTDFTLTISSLQPEDFATYYCQQANIFPLTFGGGTKVEIKRTVAAPSVFIFPPSDEQLKSGTASVVCLLNNFYPREAKVQWKVDNALQSGNSQESVTEQDSKDSTYSLSSTLTLSKADYEKHKVYACEVTHQGLSSPVTKSFNRGEC
As to B3, in the experiment with human CD40 [5], the “EC50 for agonistic CD40, HEK-Blue CD40L cells, experiment of FIG. 3” value came to 57 ng/mL; the “EC50 on CD40 pathway, HEK-Blue CD40L cells” value fell in the range of 30 to 80 ng/mL; the “mean EC50 for agonistic CD40, HEK-Blue CD40L cells” value came out at 48 ng/mL.

B4: IFA45 (antibody, human IgG2, kappa)
heavy: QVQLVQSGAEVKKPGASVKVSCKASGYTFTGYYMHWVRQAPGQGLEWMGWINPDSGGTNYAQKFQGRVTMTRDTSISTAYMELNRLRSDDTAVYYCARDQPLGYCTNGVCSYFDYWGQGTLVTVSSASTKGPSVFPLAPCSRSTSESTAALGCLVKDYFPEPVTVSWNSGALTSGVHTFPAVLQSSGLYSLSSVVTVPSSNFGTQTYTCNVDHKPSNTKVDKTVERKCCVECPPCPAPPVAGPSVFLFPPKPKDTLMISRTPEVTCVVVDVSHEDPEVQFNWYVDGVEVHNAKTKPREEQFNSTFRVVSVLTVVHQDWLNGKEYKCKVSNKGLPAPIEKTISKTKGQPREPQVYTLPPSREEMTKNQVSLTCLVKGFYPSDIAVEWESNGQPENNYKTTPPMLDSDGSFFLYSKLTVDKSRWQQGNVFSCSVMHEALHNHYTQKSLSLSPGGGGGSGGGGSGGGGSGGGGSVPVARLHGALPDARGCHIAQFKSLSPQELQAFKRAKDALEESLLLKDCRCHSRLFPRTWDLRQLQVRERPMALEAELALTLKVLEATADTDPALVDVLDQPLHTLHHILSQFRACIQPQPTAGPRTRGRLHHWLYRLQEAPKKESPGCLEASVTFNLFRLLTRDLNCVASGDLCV
light: DIQMTQSPSSVSASVGDRVTITCRASQGIYSWLAWYQQKPGKAPNLLIYTASTLQSGVPSRFSGSGSGTDFTLTISSLQPEDFATYYCQQANIFPLTFGGGTKVEIKRTVAAPSVFIFPPSDEQLKSGTASVVCLLNNFYPREAKVQWKVDNALQSGNSQESVTEQDSKDSTYSLSSTLTLSKADYEKHKVYACEVTHQGLSSPVTKSFNRGEC
As to B4, the “CD40 EC50 (ng/mL), NFκB-SEAP reporter” value in the experiment with human CD40 [2] came out at 25.8 ng/mL. Also, the “IFNλ EC50 (ng/mL), reporter in HEK-Blue IFNλ cells” value in experiment [6] was less than 0.001 ng/mL.

B5: IFA42 (antibody, human IgG2, kappa)
light: DIQMTQSPSSVSASVGDRVTITCRASQGIYSWLAWYQQKPGKAPNLLIYTASTLQSGVPSRFSGSGSGTDFTLTISSLQPEDFATYYCQQANIFPLTFGGGTKVEIKRTVAAPSVFIFPPSDEQLKSGTASVVCLLNNFYPREAKVQWKVDNALQSGNSQESVTEQDSKDSTYSLSSTLTLSKADYEKHKVYACEVTHQGLSSPVTKSFNRGECGGGGSGGGGSGGGGSGGGGSQDPYVKEAENLKKYFNAGHSDVADNGTLFLGILKNWKEESDRKIMQSQIVSFYFKLFKNFKDDQSIQKSVETIKEDMNVKFFNSNKKKRDDFEKLTNYSVTDLNVQRKAIHELIQVMAELSPAAKTGKRKRSQMLFRGRRASQ
heavy: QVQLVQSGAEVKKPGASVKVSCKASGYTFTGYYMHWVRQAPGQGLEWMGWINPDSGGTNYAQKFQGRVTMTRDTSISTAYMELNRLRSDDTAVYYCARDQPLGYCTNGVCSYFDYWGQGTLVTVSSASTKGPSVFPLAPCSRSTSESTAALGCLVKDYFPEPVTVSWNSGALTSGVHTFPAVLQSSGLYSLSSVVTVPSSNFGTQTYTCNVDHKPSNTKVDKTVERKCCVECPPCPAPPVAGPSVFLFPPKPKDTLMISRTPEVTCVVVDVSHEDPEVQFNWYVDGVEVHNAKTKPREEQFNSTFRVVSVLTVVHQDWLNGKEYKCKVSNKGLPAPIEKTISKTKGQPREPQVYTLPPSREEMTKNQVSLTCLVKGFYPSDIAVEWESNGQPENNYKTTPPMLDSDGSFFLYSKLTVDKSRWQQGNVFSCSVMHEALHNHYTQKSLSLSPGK
As to B5, the “IFNγ EC50 (ng/mL), reporter in HEK-Blue IFNγ cells” value in experiment [1] turned out to be 15.4 ng/mL. In addition, in the experiment with human CD40 [2], the “CD40 EC50 (ng/mL), NFκB-SEAP reporter” value was 65.6 ng/mL.

B6: IFA44 (antibody, human IgG2, kappa)
light: DIQMTQSPSSVSASVGDRVTITCRASQGIYSWLAWYQQKPGKAPNLLIYTASTLQSGVPSRFSGSGSGTDFTLTISSLQPEDFATYYCQQANIFPLTFGGGTKVEIKRTVAAPSVFIFPPSDEQLKSGTASVVCLLNNFYPREAKVQWKVDNALQSGNSQESVTEQDSKDSTYSLSSTLTLSKADYEKHKVYACEVTHQGLSSPVTKSFNRGECGGGGSGGGGSGGGGSGGGGSVPVARLHGALPDARGCHIAQFKSLSPQELQAFKRAKDALEESLLLKDCRCHSRLFPRTWDLRQLQVRERPMALEAELALTLKVLEATADTDPALVDVLDQPLHTLHHILSQFRACIQPQPTAGPRTRGRLHHWLYRLQEAPKKESPGCLEASVTFNLFRLLTRDLNCVASGDLCV
heavy: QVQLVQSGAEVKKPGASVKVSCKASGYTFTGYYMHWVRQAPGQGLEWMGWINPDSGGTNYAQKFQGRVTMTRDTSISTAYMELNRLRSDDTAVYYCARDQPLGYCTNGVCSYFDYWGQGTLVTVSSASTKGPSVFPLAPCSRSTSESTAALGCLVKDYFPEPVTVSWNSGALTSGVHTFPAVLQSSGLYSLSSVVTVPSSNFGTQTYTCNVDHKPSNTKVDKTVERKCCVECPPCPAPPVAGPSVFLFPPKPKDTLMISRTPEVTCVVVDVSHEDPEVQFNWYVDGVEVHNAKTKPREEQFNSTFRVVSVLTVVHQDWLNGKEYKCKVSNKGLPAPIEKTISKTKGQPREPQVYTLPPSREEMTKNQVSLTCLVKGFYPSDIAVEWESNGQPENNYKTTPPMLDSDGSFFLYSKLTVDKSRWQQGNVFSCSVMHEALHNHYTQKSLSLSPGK
Consider B6, for which the “CD40 EC50 (ng/mL), NFκB-SEAP reporter” value with human CD40 [2] amounted to 41.4 ng/mL. Besides, the “IFNλ EC50 (ng/mL), reporter in HEK-Blue IFNλ cells” value in experiment [6] stood at 0.153 ng/mL.
